T1: cynomolgus monkey FcγRIIb extracellular domain, C-terminal His-tag (cynomolgus monkey)
T1 construct: also called cyno FcγRIIb; cynoFcγRIIb; not shown: His-tag added to C-terminus
T1 chain: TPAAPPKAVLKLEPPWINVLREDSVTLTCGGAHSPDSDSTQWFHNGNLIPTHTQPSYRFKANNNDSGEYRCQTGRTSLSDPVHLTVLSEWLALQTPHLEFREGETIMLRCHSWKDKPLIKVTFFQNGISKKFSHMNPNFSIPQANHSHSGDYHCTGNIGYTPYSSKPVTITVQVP

T2: cynomolgus monkey FcγRIIa3 extracellular domain, C-terminal His-tag (cynomolgus monkey)
T2 construct: also called cyno FcγRIIa3; cynoFcgRIIa3; not shown: His-tag added to C-terminus
T2 chain: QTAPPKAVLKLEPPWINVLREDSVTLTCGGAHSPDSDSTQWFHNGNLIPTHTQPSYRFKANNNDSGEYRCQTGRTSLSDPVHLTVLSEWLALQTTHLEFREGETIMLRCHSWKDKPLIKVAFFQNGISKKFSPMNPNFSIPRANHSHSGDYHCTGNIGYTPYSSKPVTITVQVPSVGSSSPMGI

T3: cynomolgus monkey FcγRIIa2 extracellular domain, C-terminal His-tag (cynomolgus monkey)
T3 construct: also called cyno FcγRIIa2; cynoFcgRIIa2; not shown: His-tag added to C-terminus
T3 chain: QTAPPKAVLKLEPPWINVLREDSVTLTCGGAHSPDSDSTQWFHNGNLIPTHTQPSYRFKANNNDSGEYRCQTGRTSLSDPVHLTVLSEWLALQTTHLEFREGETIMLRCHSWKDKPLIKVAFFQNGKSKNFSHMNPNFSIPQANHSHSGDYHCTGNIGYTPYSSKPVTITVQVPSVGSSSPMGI

T4: cynomolgus monkey FcγRIIa1 extracellular domain, C-terminal His-tag (cynomolgus monkey)
T4 construct: also called cyno FcγRIIa1; cynoFcgRIIa1; not shown: His-tag added to C-terminus
T4 chain: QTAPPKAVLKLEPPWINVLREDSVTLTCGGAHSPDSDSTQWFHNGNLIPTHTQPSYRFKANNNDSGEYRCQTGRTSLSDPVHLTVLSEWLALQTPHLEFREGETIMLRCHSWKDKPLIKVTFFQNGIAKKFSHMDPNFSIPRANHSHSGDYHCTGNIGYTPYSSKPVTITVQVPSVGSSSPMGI

T5: human FcγRIIaR extracellular domain, C-terminal His-tag (human, UniProt P12318 34-217)
T5 construct: also called human FcγRIIa (type R); FcgRIIaR; not shown: His-tag added to C-terminus
T5 chain: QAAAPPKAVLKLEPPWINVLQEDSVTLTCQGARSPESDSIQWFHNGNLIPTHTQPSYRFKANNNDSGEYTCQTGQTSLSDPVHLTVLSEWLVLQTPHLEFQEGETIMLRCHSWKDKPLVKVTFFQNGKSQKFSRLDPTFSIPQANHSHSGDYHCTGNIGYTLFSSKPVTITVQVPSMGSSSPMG

T6: human FcγRIIaH extracellular domain, C-terminal His-tag (human, UniProt P12318 34-217)
T6 construct: also called human FcγRIIa (type H); FcgRIIaH; not shown: His-tag added to C-terminus
T6 sequence: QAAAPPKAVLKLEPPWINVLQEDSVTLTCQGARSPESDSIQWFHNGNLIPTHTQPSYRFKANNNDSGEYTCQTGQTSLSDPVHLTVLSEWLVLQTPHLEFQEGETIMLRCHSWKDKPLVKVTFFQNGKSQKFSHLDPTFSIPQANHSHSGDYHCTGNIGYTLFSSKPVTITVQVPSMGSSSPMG

T7: human FcγRIIb extracellular domain, C-terminal His-tag (human, UniProt P31994 43-217)
T7 construct: also called humanFcgRIIb; not shown: His-tag added to C-terminus
T7 sequence: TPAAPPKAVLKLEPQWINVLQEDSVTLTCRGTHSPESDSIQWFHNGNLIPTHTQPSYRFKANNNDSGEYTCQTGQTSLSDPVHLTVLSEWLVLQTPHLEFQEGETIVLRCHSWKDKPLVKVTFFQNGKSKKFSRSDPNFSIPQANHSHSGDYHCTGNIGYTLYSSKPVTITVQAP


Key:
[1] = molecular target: T1, cynomolgus monkey FcγRIIb extracellular …; assay: SPR (BIACORE); KD of parent SG1 / KD of variant;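 further: relative to parent M103205H795-SG1 carrying the SG1 human heavy chain constant region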
Procedure: (§1) The kinetic analysis of interactions between these antibodies and FcγR was carried out using BIACORE® T200 or BIACORE® 4000 (GE Healthcare). HBS-EP+ (GE Healthcare) was used as the running buffer, and the measurement temperature was set to 25° C. A chip produced by immobilizing Protein A. Protein A/G or mouse anti-human IgG kappa light chain (BD Biosciences) onto a Series S Sensor Chip CM4 or CM5 (GE Healthcare) by the amine-coupling method was used. […] After the measurement, the antibody captured on the chip was washed off by allowing reaction with 10 mM glycine-HCl, pH1.5 and 25 mM NaOH so that the chip was regenerated and used repeatedly. The sensorgrams obtained as measurement results were analyzed by the 1:1 Langmuir binding model using the BIACORE® Evaluation Software to calculate the binding rate constant ka (L/mol/s) and dissociation rate constant kd (l/s), and the dissociation constant KD (mol/L) was calculated from these values. […] Regarding such interactions, KD values were calculated using the following 1:1 binding model described in BIACORE® T100 Software Handbook BR1006-48 Edition AE.

[2] = molecular target: T2, cynomolgus monkey FcγRIIa3 …; assay: SPR (BIACORE); KD of parent SG1 / KD of variant;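 further: relative to parent M103205H795-SG1 carrying the SG1 human heavy chain constant region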
Procedure: as §1

[3] = molecular target: T3, cynomolgus monkey FcγRIIa2 …; assay: SPR (BIACORE); KD of parent SG1 / KD of variant;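 further: relative to parent M103205H795-SG1 carrying the SG1 human heavy chain constant region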
Procedure: as §1

[4] = molecular target: T8, cynomolgus monkey FcγRIIIaS extracellular domain, C-terminal His-tag (cynomolgus monkey, UniProt A3RFZ7 21-206 (rhesus entry)); assay: SPR (BIACORE); KD of parent SG1 / KD of variant;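 further: relative to parent M103205H795-SG1 carrying the SG1 human heavy chain constant region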
T8 construct: also called cyno FcγRIIIaS; cynoFcγRIIIaS; not shown: His-tag added to C-terminus
Procedure: as §1

[5] = molecular target: T4, cynomolgus monkey FcγRIIa1 …; assay: SPR (BIACORE); KD of parent SG1 / KD of variant
Procedure: as §1

[6] = molecular target: T5, human FcγRIIaR extracellular domain, …; assay: SPR (BIACORE); KD of parent SG1 / KD of variant
Procedure: as §1

[7] = molecular target: T6, human FcγRIIaH extracellular domain, …; assay: SPR (BIACORE); KD of parent SG1 / KD of variant
Procedure: as §1

[8] = molecular target: T7, human FcγRIIb extracellular domain, …; assay: SPR (BIACORE); KD of parent SG1 / KD of variant
Procedure: as §1

[9] = molecular target: T9, human FcγRIIIaV extracellular domain, C-terminal His-tag (human, UniProt P08637 17-208); assay: SPR (BIACORE); KD of parent SG1 / KD of variant
T9 construct: also called FcgRIIIaV; not shown: His-tag added to C-terminus
Procedure: as §1

[10] = molecular target: T1, cynomolgus monkey FcγRIIb extracellular …; assay: SPR (BIACORE), antibody captured, FcγR analyte
Procedure: as §1

[11] = molecular target: T2, cynomolgus monkey FcγRIIa3 …; assay: SPR (BIACORE), antibody captured, FcγR analyte
Procedure: as §1

[12] = molecular target: T3, cynomolgus monkey FcγRIIa2 …; assay: SPR (BIACORE), antibody captured, FcγR analyte
Procedure: as §1

[13] = molecular target: T8, cynomolgus monkey FcγRIIIaS …; assay: SPR (BIACORE), antibody captured, FcγR analyte
Procedure: as §1

[14] = molecular target: T4, cynomolgus monkey FcγRIIa1 …; assay: SPR (BIACORE), antibody captured, FcγR analyte
Procedure: as §1

[15] = molecular target: T5, human FcγRIIaR extracellular domain, …; assay: SPR (BIACORE), antibody captured, FcγR analyte
Procedure: as §1

[16] = molecular target: T6, human FcγRIIaH extracellular domain, …; assay: SPR (BIACORE), antibody captured, FcγR analyte
Procedure: as §1

[17] = molecular target: T7, human FcγRIIb extracellular domain, …; assay: SPR (BIACORE), antibody captured, FcγR analyte
Procedure: as §1

[18] = molecular target: T9, human FcγRIIIaV extracellular domain, …; assay: SPR (BIACORE), antibody captured, FcγR analyte
Procedure: as §1

T8 sequence (A3RFZ7 21-206): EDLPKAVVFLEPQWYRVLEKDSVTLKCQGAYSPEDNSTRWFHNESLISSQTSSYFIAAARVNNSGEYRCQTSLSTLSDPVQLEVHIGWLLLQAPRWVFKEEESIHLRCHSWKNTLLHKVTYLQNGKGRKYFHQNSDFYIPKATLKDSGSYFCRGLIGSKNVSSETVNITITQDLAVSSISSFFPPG
T9 sequence (P08637 17-208 F176V): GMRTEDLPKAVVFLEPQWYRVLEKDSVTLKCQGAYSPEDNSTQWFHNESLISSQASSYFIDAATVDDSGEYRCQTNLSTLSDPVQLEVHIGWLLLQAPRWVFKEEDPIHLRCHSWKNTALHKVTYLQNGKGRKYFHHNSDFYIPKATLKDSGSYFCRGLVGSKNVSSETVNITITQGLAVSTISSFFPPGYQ

KD fold (SG1 = 1) [1] [fold]	KD fold (SG1 = 1) [2] [fold]	KD fold (SG1 = 1) [3] [fold]	KD fold (SG1 = 1) [4] [fold]	KD fold (SG1 = 1) [5] [fold]	KD fold (SG1 = 1) [6] [fold]	KD fold (SG1 = 1) [7] [fold]	KD fold (SG1 = 1) [8] [fold]	KD fold (SG1 = 1) [9] [fold]	Kd [10] [nM]	Kd [11] [nM]	Kd [12] [nM]	Kd [13] [nM]	Kd [14] [nM]	Kd [15] [nM]	Kd [16] [nM]	Kd [17] [nM]	Kd [18] [nM]	Binder
2.2	2	1.7	0.15	1.5	4.1	2.9	1.8	0.09	880	4200	2700	2200	8100	250	810	2600	7100	M103205H795-SG1034 / M103202L889-SK1 (antibody, human IgG1, kappa, CH with G236T/H268D/Q311R/A330K/D413K/N434A against SG1 (EU numbering); also called MS1032LO06-SG1034) heavy: QVTLKESGPVLVKPTETLTLTCTVSGIDLSHDDISWVRQAPGKGLEWVGIISYAGSTYYASWAKGRLTISKDTSKNQVVLTMTNMDPVDTATYYCARGVPAYSHGGDLWGQGTLVTVSSASTKGPSVFPLAPSSKSTSGGTAALGCLVKDYFPEPVTVSWNSGALTSGVHTFPAVLQSSGLYSLSSVVTVPSSSLGTQTYICNVNHKPSNTKVDKKVEPKSCDKTHTCPPCPAPELLTGPSVFLFPPKPKDTLMISRTPEVTCVVVDVSDEDPEVKFNWYVDGVEVHNAKTKPREEQYNSTYRVVSVLTVLHRDWLNGKEYKCKVSNKALPKPIEKTISKAKGQPREPQVYTLPPSREEMTKNQVSLTCLVKGFYPSDIAVEWESNGQPENNYKTTPPVLDSDGSFFLYSKLTVKKSRWQQGNVFSCSVMHEALHAHYTQKSLSLSP light: DIVMTQSPATLSLSPGERATLSCTSSQSVYHANWLSWFQQKPGQPPKLLIYWASTLAYGVPSRFSGSGSGTDFTLTISSLQPEDAATYYCAGGYGGGRYAFGQGTKVEIKRTVAAPSVFIFPPSDEQLKSGTASVVCLLNNFYPREAKVQWKVDNALQSGNSQESVTEQDSKDSTYSLSSTLTLSKADYEKHKVYACEVTHQGLSSPVTKSFNRGEC
1	1	1	1	1	1	1	1	1	1700	6600	4100	260	8800	960	970	3800	580	MS_M103240H795-SG1/M103202L1045-SK1 (antibody, human IgG1, kappa, Parent of the MS1032LO19 Fc variants; also called MS1032LO19-SG1; MS103240H795-SG1) heavy: not shown light: DIVMTQSPATLSLSPGERATLSCTTSQSVYHENWLSWFQQKPGQPPKLLIYWASTLAYGVPSRFSGSGSGTDFTLTISSLQPEDAATYYCAGGYGGGRYAFGQGTKVEIKRTVAAPSVFIFPPSDEQLKSGTASVVCLLNNFYPREAKVQWKVDNALQSGNSQESVTEQDSKDSTYSLSSTLTLSKADYEKHKVYACEVTHQGLSSPVTKSFNRGEC
5.3	3.1	3.2	0.07	3	0.8	1.4	5.6	0.04	530	2100	1500	5800	1200	1200	690	680	14000	M103240H795-SG1071 / M103202L1045-SK1 (antibody, CH with G236N/H268D/Q295L/Q311R/A330K/D413K/M428L/N434A/Y436T/Q438R/S440E against SG1 (EU numbering); also called MS1032LO19-SG1071) heavy: QVQLVESGGGLVQPGGSLRLSCAVSGIDLSHDDISWVRQAPGKGLEWVSIISYAGSTYYASWAKGRLTISKDTSKNQVVLTMTNMDPVDTATYYCARGVPAYSHGGDLWGQGTLVTVSSASTKGPSVFPLAPSSKSTSGGTAALGCLVKDYFPEPVTVSWNSGALTSGVHTFPAVLQSSGLYSLSSVVTVPSSSLGTQTYICNVNHKPSNTKVDKKVEPKSCDKTHTCPPCPAPELLNGPSVFLFPPKPKDTLMISRTPEVTCVVVDVSDEDPEVKFNWYVDGVEVHNAKTKPREELYNSTYRVVSVLTVLHRDWLNGKEYKCKVSNKALPKPIEKTISKAKGQPREPQVYTLPPSREEMTKNQVSLTCLVKGFYPSDIAVEWESNGQPENNYKTTPPVLDSDGSFFLYSKLTVKKSRWQQGNVFSCSVLHEALHAHTTRKELSLSP light: DIVMTQSPATLSLSPGERATLSCTTSQSVYHENWLSWFQQKPGQPPKLLIYWASTLAYGVPSRFSGSGSGTDFTLTISSLQPEDAATYYCAGGYGGGRYAFGQGTKVEIKRTVAAPSVFIFPPSDEQLKSGTASVVCLLNNFYPREAKVQWKVDNALQSGNSQESVTEQDSKDSTYSLSSTLTLSKADYEKHKVYACEVTHQGLSSPVTKSFNRGEC

From patent US20200317768A1 (published 2020)
